± gives the standard deviation.
Assay: protein stability index of a GFP-peptide fusion (GPS, HEK-293T) (PSI 1-6); higher = more stable
Details: c terminus: a fixed tail appended
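Further: 24-mer peptide tiles fused after GFP, lentivirally expressed, FACS-sorted into six equal bins by GFP/DsRed ratio, decoded by Illumina sequencing, PSI is the read-weighted mean bin number.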

Sequence	protein stability index (treatment: DMSO)	protein stability index (treatment: MLN4924 1 uM, 8 h)
LQRVPSYDSFDSEDYPAALPNHKP [ETS1]	4.45 ± 0.18	4.53 ± 0.17
PWVYILLRKAVLKNLYKLASQCCG [PTGFR]	2.09 ± 0.26	2.22 ± 0.45
HHLGSGSGAGGTGGPAGQAGRGGA [MYOZ1]	4.9 ± 0.35	5.01 ± 0.33
SGRFIVIIPRTVIDGLDLLKKEHP [SMG5]	2.9 ± 0.55	3.31 ± 0.78
NISHTKEKKKGKAKKKRLTKADIG [WASL]	4.78 ± 0.23	4.81 ± 0.26
EREKVTPLMVKGFRDAAEEGGTAV [SEPHS2]	5.24 ± 0.18	5.12 ± 0.16
GLDIGAQGEPLGYRQDDPSYRSFH [CTNNB1]	4.14 ± 0.12	4.22 ± 0.19
TNFVVQVSVFIGVLIDLWKITKVM [CLPTM1]	3.1 ± 0.67	3.39 ± 0.72
QLCDVSIRVQGREFRAHRAVLAAS [ZBTB22]	2.58 ± 0.35	2.77 ± 0.3
MVAHDETGGLLPIKRTIRVLDVNN [NET1]	3.27 ± 0.21	3.35 ± 0.25
LIYTLKNAEMKSAMRKLWSKKVSL [OR4A15]	2.41 ± 0.97	2.04 ± 0.12
DAPLPGSKAKPKPPKQAQKEQRKQ [TBC1D10A]	5.45 ± 0.087	5.31 ± 0.18
GVEPAPWAQLEAPARLLLQALQAG [FANCE]	2.89 ± 0.27	2.92 ± 0.38
AAIVVNGHGMTPLKVAAESCKADV [FEM1B]	3.38 ± 0.39	3.3 ± 0.35
MDYDSYQHYFYDYDCGEDFYRSTA [MYCL]	2.75 ± 0.35	2.51 ± 0.26
LLQTQHALGDAFADLSQKSPELQE [ARFIP2]	4.7 ± 0.22	4.77 ± 0.21
IKRLVGSDQETLRIHERLVAGSLA [SLC25A25]	2.74 ± 0.31	2.62 ± 0.18
NYYEVGSNRGAYVKLGPALTPHIV [PPEF2]	2.19 ± 0.2	2.55 ± 0.32
LGSDYEQPLEVKNNSNLQRMGSSE [CDC25A]	5.01 ± 0.19	4.94 ± 0.57
MYEEEMEREEITTKKRKLGKNPDV [FAM50A]	4.94 ± 0.57	5.14 ± 0.44
RWWEDLERDFPCPVCRKTSRYRSL [TRIM39]	2.36 ± 0.21	2.77 ± 0.56
ESDSQGQGNGLFYSSGPQSWYPKA [ZC2HC1C]	3.62 ± 0.32	3.72 ± 0.34
IRKTVKRLRKHQHVGDFARDLAAR [ELOA2]	3.6 ± 0.23	3.69 ± 0.23

Sequence	protein stability index (treatment: DMSO)	protein stability index (treatment: MLN4924 1 uM, 8 h)
LLVQFVCQEYLARNARIVHLVEET [CPXM2]	3.82 ± 0.26	2.63 ± 0.95
PSGTPTNLRRHVPDLESGSESGAD [DLC1]	5.47 ± 0.33	5.46 ± 0.1
NNKLKLQQKLVIDTVTEVTARMEM [CBY2]	2.94 ± 0.53	2.89 ± 0.41
ALKEELLFMKKNHEEEVKGLQAQI [KRT18]	3.79 ± 0.36	3.95 ± 0.28
THLILHRDLKTQNILLDKHRMVVK [NEK8]	2.78 ± 0.11	2.83 ± 0.17
HLIRHQITHTREEQPHGRSRRREQ [ZNF8]	4.57 ± 0.13	4.75 ± 0.051
SDCEEEEEEEEEEGSGHSTGEDSA [WEE1]	5.57 ± 0.2	5.49 ± 0.33
VTTHQPTNLVLPSNGSMHNYCPQQ [EDNRA]	3.75 ± 0.2	3.77 ± 0.056
SPLEEKHDQCKCENLIMFQNLANE [MATN2]	4.365 ± 0.004	4.05 ± 0.69
RVYHGWLFEGLGRDKAEELLQLPD [SLA]	3.01 ± 0.53	2.82 ± 0.57
SIYIHVYFTKSGFHPDPRQKALYR [CLPTM1]	2.86 ± 0.6	2.76 ± 0.22
HMSLEKDIAAMTNSLFIDRQKCMA [TEKT4]	3 ± 0.18	3.02 ± 0.23
LHVNGESLEMDSDEDDSEELEEDD [EHMT1]	5.41 ± 0.26	5.28 ± 0.12
DNEYAYLKAIIFFDPDAKGLSDPG [HNF4A]	1.92 ± 0.19	2.14 ± 0.092
MAAADAEAVPARGEPQQDCCVKTE [EHMT1]	5.63 ± 0.21	5.53 ± 0.11
HLGKEQSRRDDLEALGHMFMYFLR [CSNK1G1]	2.61 ± 0.24	2.25 ± 0.26
AKLAINQGMEVDLVTGLAIEEACY [AUH]	2.07 ± 0.21	2.32 ± 0.44
LREAEIARIRDEEAQRASFLQNAV [LRRC45]	4.37 ± 0.18	4.43 ± 0.27
PGTGKTSLCKALAQKLTIRLSSRY [TRIP13]	2.92 ± 0.64	2.63 ± 0.65
ISIVIFCLETLPEFRDDRDLVMAL [KCNA4]	3.04 ± 0.81	2.84 ± 0.68
SFIITLGCNSVLIQFATPNDFCSF [CARM1]	3.3 ± 0.25	2.75 ± 0.45
QDLKYISPEIMASVLNGKFANLIK [CDC25A]	2.21 ± 0.22	2.24 ± 0.17

Reference: the supplement of paper PMC10567573
